This note sets out measurements from the supplement of paper PMC5998384.

For series [1], the system named is HeLa Kyoto. The series can be described thus: solubility change mitosis vs G1/S (difference of NP-40 vs SDS log2 ratios) (log2 ratio difference); higher = more soluble in mitosis.
For series [2], the system named is HeLa Kyoto. The series can be described thus: solubility in G1/S (NP-40 vs SDS abundance) (log2 ratio); higher = more soluble. Conditions: cell cycle stage: G1/S.
Series [3] deals with HeLa Kyoto. The series can be described thus: thermal stability score vs G1/S (z-score of summed log2 fold changes over temperatures); higher = more thermally stable than in G1/S.
Series [4] has as its system HeLa Kyoto. The series can be described thus: melting temperature (median over replicates), in situ; higher = more thermally stable.
[5] abbreviates: cell cycle stage: early G1 (4.5 h after nocodazole release).
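For melting temperature (median over replicates), in situ in this document: HeLa Kyoto cells synchronized by double thymidine or nocodazole block, proteins quantified by TMT10plex mass spectrometry, three independent biological replicates.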
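For solubility change mitosis vs G1/S (difference of NP-40 vs SDS log2 ratios) in this document: synchronized HeLa Kyoto cells (double thymidine block for G1/S, nocodazole release for mitosis), protein amounts in NP-40 versus SDS lysates quantified by mass spectrometry, three biological replicates.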
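For solubility in G1/S (NP-40 vs SDS abundance) in this document: HeLa Kyoto cells arrested at G1/S by double thymidine block, proteins quantified by TMT10plex mass spectrometry in mild NP-40 versus SDS extracts, three biological replicates.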
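For thermal stability score vs G1/S (z-score of summed log2 fold changes over temperatures) in this document: synchronized HeLa Kyoto cells, proteins quantified by TMT10plex mass spectrometry, three biological replicates, mitosis taken 0.5 h after nocodazole release, G1/S directly after double thymidine block.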

For “MEEEGLECPNSSSEKRYFPESLDSSDGDEEEVLACEDLELNPFDGLPYSSRYYKLLKEREDLPIWKEKYSFMENLLQNQIVIVSGDAKCGKSAQVPQWCAEYCLSIHYQHGGVICTQVHKQTVVQLALRVADEMDVNIGHEVGYVIPFENCCTNETILRYCTDDMLQREMMSNPFLGSYGVIILDDIHERSIATDVLLGLLKDVLLARPELKLIINSSPHLISKLNSYYGNVPVIEVKNKHPVEVVYLSEAQKDSFESILRLIFEIHHSGEKGDIVVFLACEQDIEKVCETVYQGSNLNPDLGELVVVPLYPKEKCSLFKPLDETEKRCQVYQRRVVLTTSSGEFLIWSNSVRFVIDVGVERRKVYNPRIRANSLVMQPISQSQAEIRKQILGSSSSGKFFCLYTEEFASKDMTPLKPAEMQEANLTSMVLFMKRIDIAGLGHCDFMNRPAPESLMQALEDLDYLAALDNDGNLSEFGIIMSEFPLDPQLSKSILASCEFDCVDEVLTIAAMVTAPNCFSHVPHGAEEAALTCWKTFLHPEGDHFTLISIYKAYQDTTLNSSSEYCVEKWCRDYFLNCSALRMADVIRAELLEIIKRIELPYAEPAFGSKENTLNIKKALLSGYFMQIARDVDGSGNYLMLTHKQVAQLHPLSGYSITKKMPEWVLFHKFSISENNYIRITSEISPELFMQLVPQYYFSNLPPSESKDILQQVVDHLSPVSTMNKEQQMCETCPETEQRCTLQ [DHX32]”, the “solubility change mitosis (log2)” value with HeLa Kyoto [1] is -0.152. In addition, the “solubility in G1/S (log2)” value in the series with HeLa Kyoto [2] is -0.155. Besides, the figures for the thermal stability score with HeLa Kyoto [3] (setting [5]) and in the series on HeLa Kyoto [3] (cell cycle stage: mitosis) were -0.0722 and 0.258, respectively. The melting temperature amounted to 49.4 °C with HeLa Kyoto [4] (cell cycle stage: G1/S) and 50 °C with HeLa Kyoto [4] (cell cycle stage: mitosis).

With “MEEGGGGVRSLVPGGPVLLVLCGLLEASGGGRALPQLSDDIPFRVNWPGTEFSLPTTGVLYKEDNYVIMTTAHKEKYKCILPLVTSGDEEEEKDYKGPNPRELLEPLFKQSSCSYRIESYWTYEVCHGKHIRQYHEEKETGQKINIHEYYLGNMLAKNLLFEKEREAEEKEKSNEIPTKNIEGQMTPYYPVGMGNGTPCSLKQNRPRSSTVMYICHPESKHEILSVAEVTTCEYEVVILTPLLCSHPKYRFRASPVNDIFCQSLPGSPFKPLTLRQLEQQEEILRVPFRRNKEEDLQSTKEERFPAIHKSIAIGSQPVLTVGTTHISKLTDDQLIKEFLSGSYCFRGGVGWWKYEFCYGKHVHQYHEDKDSGKTSVVVGTWNQEEHIEWAKKNTARAYHLQDDGTQTVRMVSHFYGNGDICDITDKPRQVTVKLKCKESDSPHAVTVYMLEPHSCQYILGVESPVICKILDTADENGLLSLPN [ERLEC1]”, in the series on HeLa Kyoto [1], the “solubility change mitosis (log2)” value was -0.0947. In the series with HeLa Kyoto [2], the “solubility in G1/S (log2)” value is 0.0171. In addition, the thermal stability score in the series with HeLa Kyoto [3] (setting [5]) turned out to be 1.6; in the series with HeLa Kyoto [3] (cell cycle stage: mitosis), 0.429. For the same sequence, the melting temperature stood at 54.1 °C in the series with HeLa Kyoto [4] (cell cycle stage: G1/S) and 54 °C in the series with HeLa Kyoto [4] (cell cycle stage: mitosis).

On to “MEELDGEPTVTLIPGVNSKKNQMYFDWGPGEMLVCETSFNKKEKSEMVPSCPFIYIIRKDVDVYSQILRKLFNESHGIFLGLQRIDEELTGKSRKSQLVRVSKNYRSVIRACMEEMHQVAIAAKDPANGRQFSSQVSILSAMELIWNLCEILFIEVAPAGPLLLHLLDWVRLHVCEVDSLSADVLGSENPSKHDSFWNLVTILVLQGRLDEARQMLSKEADASPASAGICRIMGDLMRTMPILSPGNTQTLTELELKWQHWHEECERYLQDSTFATSPHLESLLKIMLGDEAALLEQKELLSNWYHFLVTRLLYSNPTVKPIDLHYYAQSSLDLFLGGESSPEPLDNILLAAFEFDIHQVIKECSIALSNWWFVAHLTDLLDHCKLLQSHNLYFGSNMREFLLLEYASGLFAHPSLWQLGVDYFDYCPELGRVSLELHIERIPLNTEQKALKVLRICEQRQMTEQVRSICKILAMKAVRNNRLGSALSWSIRAKDAAFATLVSDRFLRDYCERGCFSDLDLIDNLGPAMMLSDRLTFLGKYREFHRMYGEKRFADAASLLLSLMTSRIAPRSFWMTLLTDALPLLEQKQVIFSAEQTYELMRCLEDLTSRRPVHGESDTEQLQDDDIETTKVEMLRLSLARNLARAIIREGSLEGS [NUP85]”, for which the “solubility change mitosis (log2)” value in the series with HeLa Kyoto [1] was 0.246. Also, the “solubility in G1/S (log2)” value with HeLa Kyoto [2] was -0.6. Besides, the thermal stability score in the series with HeLa Kyoto [3] (setting [5]) is -2.34; with HeLa Kyoto [3] (cell cycle stage: mitosis) it was -4.7. The melting temperature in the series on HeLa Kyoto [4] (cell cycle stage: G1/S) came out at 52.3 °C; with HeLa Kyoto [4] (cell cycle stage: mitosis), 50.8 °C.

Take “MEESHFNSNPYFWPSIPTVSGQIENTMFINKMKDQLLPEKGCGLAPPHYPTLLTVPASVSLPSGISMDTESKSDQLTPHSQASVTQNITVVPVPSTGLMTAGVSCSQRWRREGSQSRGPGLVITSPSGSLVTTASSAQTFPISAPMIVSALPPGSQALQVVPDLSKKVASTLTEEGGGGGGGGGSVAPKPPRGRKKKRMLESGLPEMNDPYVLSPEDDDDHQKDGKTYRCRMCSLTFYSKSEMQIHSKSHTETKPHKCPHCSKTFANSSYLAQHIRIHSGAKPYSCNFCEKSFRQLSHLQQHTRIHSKMHTETIKPHKCPHCSKTFANTSYLAQHLRIHSGAKPYNCSYCQKAFRQLSHLQQHTRIHTGDRPYKCAHPGCEKAFTQLSNLQSHRRQHNKDKPFKCHNCHRAYTDAASLEVHLSTHTVKHAKVYTCTICSRAYTSETYLMKHMRKHNPPDLQQQVQAAAAAAAVAQAQAQAQAQAQAQAQAQAQAQASQASQQQQQQQQQQQQQQQQPPPHFQSPGAAPQGGGGGDSNPNPPPQCSFDLTPYKTAEHHKDICLTVTTSTIQVEHLASS [ZNF384]”: the “solubility change mitosis (log2)” value in the series with HeLa Kyoto [1] came to 0.0582. Further, the “solubility in G1/S (log2)” value in the series with HeLa Kyoto [2] is -0.109. The values for the thermal stability score in the series on HeLa Kyoto [3] (setting [5]) and with HeLa Kyoto [3] (cell cycle stage: mitosis) were -0.69 and -1.1, respectively. Also, the melting temperature in the series on HeLa Kyoto [4] (cell cycle stage: G1/S) worked out at 51.6 °C; in the series with HeLa Kyoto [4] (cell cycle stage: mitosis) it was 52.4 °C.

As to “MEEVRCPEHGTFCFLKTGVRDGPNKGKSFYVCRADTCSFVRATDIPVSHCLLHEDFVVELQGLLLPQDKKEYRLFFRCIRSKAEGKRWCGSIPWQDPDSKEHSVSNKSQHASETFHHSSNWLRNPFKVLDKNQEPALWKQLIKGEGEEKKADKKQREKGDQLFDQKKEQKPEMMEKDLSSGLVPKKKQSVVQEKKQEEGAEIQCEAETGGTHKRDFSEIKSQQCQGNELTRPSASSQEKSSGKSQDVQRESEPLREKVTQLLPQNVHSHNSISKPQKGGPLNKEYTNWEAKETKAKDGPSIQATQKSLPQGHFQERPETHSVPAPGGPAAQAAPAAPGLSLGEGREAATSSDDEEEDDVVFVSSKPGSPLLFDSTLDLETKENLQFPDRSVQRKVSPASGVSKKVEPSDPVARRVYLTTQLKQKKSTLASVNIQALPDKGQKLIKQIQELEEVLSGLTLSPEQGTNEKSNSQVPQQSHFTKTTTGPPHLVPPQPLPRRGTQPVGSLELKSACQVTAGGSSQCYRGHTNQDHVHAVWKITSEAIGQLHRSLESCPGETVVAEDPAGLKVPLLLHQKQALAWLLWRESQKPQGGILADDMGLGKTLTMIALILTQKNQEKKEEKEKSTALTWLSKDDSCDFTSHGTLIICPASLIHHWKNEVEKRVNSNKLRVYLYHGPNRDSRARVLSTYDIVITTYSLVAKEIPTNKQEAEIPGANLNVEGTSTPLLRIAWARIILDEAHNVKNPRVQTSIAVCKLQACARWAVTGTPIQNNLLDMYSLLKFLRCSPFDEFNLWRSQVDNGSKKGGERLSILTKSLLLRRTKDQLDSTGRPLVILPQRKFQLHHLKLSEDEETVYNVFFARSRSALQSYLKRHESRGNQSGRSPNNPFSRVALEFGSEEPRHSEAADSPRSSTVHILSQLLRLRQCCCHLSLLKSALDPMELKGEGLVLSLEEQLSALTLSELRDSEPSSTVSLNGTFFKMELFEGMRESTKISSLLAELEAIQRNSASQKSVIVSQWTNMLKVVALHLKKHGLTYATIDGSVNPKQRMDLVEAFNHSRGPQVMLISLLAGGVGLNLTGGNHLFLLDMHWNPSLEDQACDRIYRVGQQKDVVIHRFVCEGTVEEKILQLQEKKKDLAKQVLSGSGESVTKLTLADLRVLFGI [TTF2]”, the “solubility change mitosis (log2)” value in the series on HeLa Kyoto [1] is -0.0303. Moreover, the “solubility in G1/S (log2)” value in the series with HeLa Kyoto [2] is -0.107. In addition, the thermal stability score was found to be 0.916 in the series with HeLa Kyoto [3] (setting [5]) and 0.826 in the series with HeLa Kyoto [3] (cell cycle stage: mitosis). The melting temperature stood at 48.3 °C in the series on HeLa Kyoto [4] (cell cycle stage: G1/S) and 49.1 °C with HeLa Kyoto [4] (cell cycle stage: mitosis).

As to “MEFLKTCVLRRNACTAVCFWRSKVVQKPSVRRISTTSPRSTVMPAWVIDKYGKNEVLRFTQNMMMPIIHYPNEVIVKVHAASVNPIDVNMRSGYGATALNMKRDPLHVKIKGEEFPLTLGRDVSGVVMECGLDVKYFKPGDEVWAAVPPWKQGTLSEFVVVSGNEVSHKPKSLTHTQAASLPYVALTAWSAINKVGGLNDKNCTGKRVLILGASGGVGTFAIQVMKAWDAHVTAVCSQDASELVRKLGADDVIDYKSGSVEEQLKSLKPFDFILDNVGGSTETWAPDFLKKWSGATYVTLVTPFLLNMDRLGIADGMLQTGVTVGSKALKHFWKGVHYRWAFFMASGPCLDDIAELVDAGKIRPVIEQTFPFSKVPEAFLKVERGHARGKTVINVV [RTN4IP1]”, the “solubility change mitosis (log2)” value in the series on HeLa Kyoto [1] was -0.0156. Further, the “solubility in G1/S (log2)” value in the series on HeLa Kyoto [2] is -0.119. Besides, the thermal stability score stood at 0.632 in the series on HeLa Kyoto [3] (setting [5]) and 1.04 in the series with HeLa Kyoto [3] (cell cycle stage: mitosis). For the same sequence, the values for the melting temperature with HeLa Kyoto [4] (cell cycle stage: G1/S) and in the series with HeLa Kyoto [4] (cell cycle stage: mitosis) were 50.7 °C and 51.7 °C, respectively.

Regarding “MEFQAVVMAVGGGSRMTDLTSSIPKPLLPVGNKPLIWYPLNLLERVGFEEVIVVTTRDVQKALCAEFKMKMKPDIVCIPDDADMGTADSLRYIYPKLKTDVLVLSCDLITDVALHEVVDLFRAYDASLAMLMRKGQDSIEPVPGQKGKKKAVEQRDFIGVDSTGKRLLFMANEADLDEELVIKGSILQKHPRIRFHTGLVDAHLYCLKKYIVDFLMENGSITSIRSELIPYLVRKQFSSASSQQGQEEKEEDLKKKELKSLDIYSFIKEANTLNLAPYDACWNACRGDRWEDLSRSQVRCYVHIMKEGLCSRVSTLGLYMEANRQVPKLLSALCPEEPPVHSSAQIVSKHLVGVDSLIGPETQIGEKSSIKRSVIGSSCLIKDRVTITNCLLMNSVTVEEGSNIQGSVICNNAVIEKGADIKDCLIGSGQRIEAKAKRVNEVIVGNDQLMEI [EIF2B3]”, the “solubility change mitosis (log2)” value with HeLa Kyoto [1] is -0.222. Also, the “solubility in G1/S (log2)” value with HeLa Kyoto [2] is -0.0277. In addition, the thermal stability score is -0.882 in the series on HeLa Kyoto [3] (setting [5]) and -0.4 in the series with HeLa Kyoto [3] (cell cycle stage: mitosis). Besides, the melting temperature in the series with HeLa Kyoto [4] (cell cycle stage: G1/S) worked out at 50.5 °C; in the series with HeLa Kyoto [4] (cell cycle stage: mitosis), 50.7 °C.
